Biological target: HLA-A*02:01 on T2 cells (human (endogenous in T2))
Test: flow cytometry on cells

| time for which complexes with HLA-A*02:01 lasted [h] | Binder |
| --- | --- |
| > 4 | FLGPWPAAS [p14 peptide … from the LRPAP1 signal peptide] |
| > 4 | LTLLGTLWGA [p34 peptide … from PCDHGA6] |
| > 4 | SVLWLGALGL [p35 peptide … from C20orf141] |
| > 4 | VIIKPLVWV [p55 peptide … from APCS] |

Reference: paper PMC6122969
